In patent US20060160117:

T1: MTase(R124) (UniProt P10484)
T1 sequence 1: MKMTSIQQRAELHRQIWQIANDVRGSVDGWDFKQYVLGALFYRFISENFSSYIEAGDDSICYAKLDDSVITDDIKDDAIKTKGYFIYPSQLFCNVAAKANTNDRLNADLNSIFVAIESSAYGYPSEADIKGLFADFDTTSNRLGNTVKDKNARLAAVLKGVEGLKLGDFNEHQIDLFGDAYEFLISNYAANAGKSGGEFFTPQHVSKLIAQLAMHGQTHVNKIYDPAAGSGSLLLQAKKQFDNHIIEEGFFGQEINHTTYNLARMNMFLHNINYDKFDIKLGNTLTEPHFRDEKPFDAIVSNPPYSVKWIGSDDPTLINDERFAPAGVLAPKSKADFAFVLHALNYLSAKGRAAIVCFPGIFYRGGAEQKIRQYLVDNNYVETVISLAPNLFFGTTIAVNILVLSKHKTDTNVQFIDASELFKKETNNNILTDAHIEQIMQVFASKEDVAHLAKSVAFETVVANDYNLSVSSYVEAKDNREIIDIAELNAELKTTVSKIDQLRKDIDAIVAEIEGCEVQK
T1 sequence 2: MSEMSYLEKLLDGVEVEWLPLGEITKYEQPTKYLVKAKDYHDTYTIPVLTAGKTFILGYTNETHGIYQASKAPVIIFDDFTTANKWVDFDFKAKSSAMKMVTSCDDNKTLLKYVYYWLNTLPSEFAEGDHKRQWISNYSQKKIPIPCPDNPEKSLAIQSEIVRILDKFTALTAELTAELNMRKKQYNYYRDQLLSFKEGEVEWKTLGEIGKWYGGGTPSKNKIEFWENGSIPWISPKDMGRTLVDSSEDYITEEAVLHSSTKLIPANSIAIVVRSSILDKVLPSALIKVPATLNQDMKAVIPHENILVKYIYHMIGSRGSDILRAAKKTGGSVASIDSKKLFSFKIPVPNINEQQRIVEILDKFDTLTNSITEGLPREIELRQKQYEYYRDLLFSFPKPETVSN

T2: MTase(R124), P10484
T2 chain 1: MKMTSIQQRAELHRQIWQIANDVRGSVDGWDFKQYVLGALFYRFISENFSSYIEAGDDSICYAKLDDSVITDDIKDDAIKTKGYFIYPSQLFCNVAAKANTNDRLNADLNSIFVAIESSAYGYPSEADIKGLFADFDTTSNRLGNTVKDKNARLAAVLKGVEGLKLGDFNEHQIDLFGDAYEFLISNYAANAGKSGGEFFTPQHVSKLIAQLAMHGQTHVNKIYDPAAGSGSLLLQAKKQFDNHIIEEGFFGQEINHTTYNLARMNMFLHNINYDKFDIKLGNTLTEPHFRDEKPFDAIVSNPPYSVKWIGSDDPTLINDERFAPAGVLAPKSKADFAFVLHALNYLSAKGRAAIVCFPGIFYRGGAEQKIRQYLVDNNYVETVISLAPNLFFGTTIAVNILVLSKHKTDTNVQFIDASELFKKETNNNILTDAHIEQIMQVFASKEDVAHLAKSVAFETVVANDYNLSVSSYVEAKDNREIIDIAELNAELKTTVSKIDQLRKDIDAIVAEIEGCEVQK
T2 chain 2: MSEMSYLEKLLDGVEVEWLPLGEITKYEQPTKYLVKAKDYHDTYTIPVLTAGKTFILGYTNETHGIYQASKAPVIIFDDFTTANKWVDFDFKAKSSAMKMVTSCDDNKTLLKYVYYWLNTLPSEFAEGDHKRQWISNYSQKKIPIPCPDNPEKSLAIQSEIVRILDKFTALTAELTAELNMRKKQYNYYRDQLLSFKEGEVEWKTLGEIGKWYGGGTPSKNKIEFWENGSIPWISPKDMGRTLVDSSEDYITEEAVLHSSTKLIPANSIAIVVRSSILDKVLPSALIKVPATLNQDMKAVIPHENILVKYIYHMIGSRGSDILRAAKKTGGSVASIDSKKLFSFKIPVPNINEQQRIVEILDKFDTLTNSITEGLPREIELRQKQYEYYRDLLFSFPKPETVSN


Assays:
MTase(R124) = biological target: T1, MTase(R124)
MTase(R124), P10484 = biological target: T2, MTase(R124), P10484

Row | Molecule | DNA cleavage by the hybrid endonuclease (MTase(R124)) | cleavage of pCFD30 plasmid DNA (agarose gel) (MTase(R124), P10484)
1 | HsdR(prrI) | this hybrid enzyme can only cleave DNA in the presence of extremely high concentrations of HsdR(prrI) | 
2 | HsdR(R124) (protein) MTHQTHTIAESNNFIVLDKYIKAEPTGDSYQSESDLERELIQDLRNQGYEFISVKSQSAMLANVREQLQNLNGVVFNDSEWRRFTEQYLDNPSDGILDKTRKIHIDYICDFIFDDERLENIYLIDKKNLMRNKVQIIQQFEQAGSHANRYDVTILVNGLPLVQIELKKRGVAIREAFNQIHRYSKESFNSENSLFKYLQLFVISNGTDTRYFANTTKRDKNSFDFTMNWAKSDNTLIKDLKDFTATCFQKHTLLNVLVNYSVFDSSQTLLVMRPYQIAATERILWKIKSSFTAKNWSKPESGGYIWHTTGSGKTLTSFKAARLATELDFIDKVFFVVDRKDLDYQTMKEYQRFSPDSVNGSENTAGLKRNLDKDDNKIIVTTIQKLNNLMKAESDLPVYNQQVVFIFDECHRSQFGEAQKNLKKKFKRYYQFGFTGTPIFPENALGSETTASVFGRELHSYVITDAIRDEKVLKFKVDYNDVRPQFKSLETETDEKKLSAAENQQAFLHPMRIQEITQYILNNFRQKTHRTFPGSKGFNAMLAVSSVDAAKAYYATFKRLQEEAANKSATYKPLRIATIFSFAANEEQNAIGEISDETFDTSAMDSSAKEFLDAAIREYNSHFKTNFSTDSNGFQNYYRDLAQRVKNQDIDLLIVVGMFLTGFDAPTLNTLFVDKNLRYHGLMQAFSRTNRIYDATKTFGNIVTFRDLERSTIDAITLFGDKNTKNVVLEKSYTEYMEGFTDAATGEAKRGFMTVVSELEQRFPDPTSIESEKEKKDFVKLFGEYLRAENILQNYDEFATLKALQQIDLSDPVAVEKFKAEHYVDDEKFAELQTIRLPADRKIQDYRSAYNDIRDWQRREKEAEKKEKSTTDWDDVVFEVDLLKSQEINLDYILGLIFEHNRQNKGKGEMIEEVKRLIRSSLGNRAKEGLVVDFIQQTNLDDLPDKASIIDAFFTFAQREQQREAEALIKEENLNEDAAKRYIRTSLKREYATENGTELNETLPKLSPLNPQYKTKKQAVFQKIVSFIEKFKGVGGKI |  | The R2-complex was found to cleave the plasmid DNA, as expected. No cleavage was observed for the R1-complex
